Laboratory results reported in the nanobody polyreactivity screen of Harvey et al. (2022).

Assay: yeast display, Sf9 membrane polyspecificity reagent, FACS + sequencing; frameworks hold sequencing errors
Outline: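 Sorting gates, low and high (top ~1%), were placed on anti-HA fluorescence to track expression and on streptavidin fluorescence to track reagent binding. A clone's polyreactivity label is taken from the gate it came out of. The reagent was 10% biotinylated, detergent-solubilized Sf9 membrane, applied for 1 hour at 4 °C to galactose-induced yeast display cells.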

Sequence | polyreactivity (PSR sort gate)
QVQLVESGGGLVEAGGSLRLSCAASGAIFQYAMGWYRQAPGKERELVAGITYRGSTYYADSVKGRFTISRDNAKNTVYLQMNSMKPEDTAVYDCAALQRGFGYRPRRWSYDYWGQGTQVTVSS | high polyreactivity
QVQLVESGGGLVQAGGSLRLSCAASGSIFSNNAMGWYRQAPGKERELVAAISRSGTNTYYADSVKGRFTISRDNAKNTVYLQMNSLKPEDTAVEYCAARGVYVKYYYWGQGTQVTVSS | high polyreactivity
QVQLQESGGGLVQAGGSLRMSCAASGNIFDADIMGWSRQAPGKERELVASNTDGRRTNYADSVKGRYTISRDSEKNTVYLQMNSLKAEDTAEYYCAAIAYPVVPTSFDYDCDYFHWGQGTQVTVSS | high polyreactivity
QVQLVESGGGLVQAGGSLRLSCSASGSTFDGNAMVWYRQAPGKERELVAAITQRASNTYYADSVKGRFTISRDNAKNTVYLQMNSLKPEDTAVYYCNADFYVTSAEFYYWGQGSQVTVSS | low polyreactivity
QVQLVESGGGLVQPGGSLRLSCAASGSTFGGYAKGWYRQAPGQERELVAAITWDTGTTYYADSVKGRFTISRDNAKNTVYLQMNSLKPEDTAVYYCAAVGSTTTGVRRRGYWGQGTQVNVSS | high polyreactivity
QVQLVESGGGLVQAGGSLRLSCAASGRIFYFYAMGWYRQAPGKERELVAAISTSGGSTYYADSVKGRFTISRDNAKNTVYLQMNRLKPEDTAVYYCASRFRYYGSEYDYWGQGTQVTVSS | low polyreactivity
QVQLVESGGGLVQAGGSLRLSCAASGFTFNRYVMGWYRQAPGKERELVAAISGGGARTYYADSVKGRFTISRDNAKNTVYLQMNSLKPEDTAVYYCNARYKSHSVSDYYYWGQGTQVTVSS | high polyreactivity
QVQLVESGGGLVQAGGSLRLSCAASGSIFSYYAMGWYRQAPGKERELVAAITTGGGTYYADSVKGRFTISRDNAKNTVYLQMNSLKPEDTAVYYCAKDGYPDQDVQVFNDSDYWGQGTQVTVSS | low polyreactivity
QVQLVESGGGLVQAGGSLRLSCAASGSTFYYNAMGWYRQAPGKERELVARISRSGGSTYADSVKGRFTISRDNAKKTVSFQMNSLKPEDTAVYYCNADAYGTQEFTSYAVRYDYWGQGTEVTVSS | low polyreactivity
QVQLVESGGGLVQAGGSLRLSCAASGGIFRGNAMGWYRQAPGKERELVAAISSSGGSTYYADSVKVRFTISRDNSKYTVYLEMYSLKPEDTAVYYCAAYAGSFYYWGQGTQVTVSS | high polyreactivity
QVQLVESGGGLVQAGGSLRLSCAASGSTFRYNVMGWYRQAPGKERELVATISYSGGSTNYADSVKGRFTISRDNAKNTDYLQMNSLKPEDTAVYYCAARYLYPFYRYWWYDYWGQGTQVTVSS | high polyreactivity
QVQLVESGGGLVQAGGSLRLSCAASGRTFARYAMGWYRQAPGKERELVAAISWSGGRTYYADSVKGRFTISRDNAKNTVYLQMNSLKPEDTAVYYCAASLYRRQMDHWGQGTQVTVSS | high polyreactivity
QVQLVESGGGLVQAGGSLRLSCAASGFIFQPYAMGWSRQAPGKERELVAAITSRGGRTYYADSVKGRFTISRDNAKNTVYLQMNSLKPEDTAVYYCNADIYASEYYYWGQGTQLTVSS | low polyreactivity
QVQLVESGGGLVQAGGSLRLSCAASGSIFRYNAMGWYRQAPGKERELVASISISDGSTYYADSVKGRFTISRDNAKNTVYLQMKSLKPEDTAVYYCAARTRDFYYPYDYWGQGTQVTVSS | low polyreactivity
QVQLVESGGGLVQAGGSLRLSCAASGIIIRYYGMGWYRQAPGKERELVARIRWTGGSTYYADSVKGRFTISRDNAKNTVYLQMNSLKPEDTAVYYCAAQWKYRQSYLDYYWGQGTQVTVSS | low polyreactivity
QVQLVESGGGLVQAGGSLRLSCAASGFTFLYNAMGWSRQAPGKERELVASINSGGSTNYADSVKGRFTISRDNAKNTVYLQMNSLKPEDTAVYYFNAKRHVRKGDYWGQGTQVTVSS | low polyreactivity
QDQLVESGGGLVQAGGSLRLSCAASGSTFPFYAMGWDRQAPGKERELVAAITSGGSTYADSVKGRFTISRDNAKNTVYLQMNSLKPEDTAVYYCAAVGWFADCLFSDIKGYSWGQGTPVTVSS | low polyreactivity
QVHLVASGGGLVQAGGSLRLRCAASGFTIDTYAKGWYRQAPGKERDLVAGISWSGGSTYYADSVKGRFTISRDNAKNTVYLQRNSLNPEDTAVYYCAADYAGYPGRTRQRPGYDYWGQGTQVTVSS | low polyreactivity
QVQLVESGGCLVQAGGSLRLSSAASGFTFDKYAMGWYRQAPGKEMELVAAISGSGGTTYYADSVKGRFTISRDNAKNTVYLQMNSLKPEDTAVYYCATRLYSIYSYGYWGQGTQVTVSS | high polyreactivity
QVQLVESGGGLVQAGGSLRLSCAASGSIFIYYSMGWYRQAPGKERELVAAISWSGGDTYYADSVKGRFTISRDNAKNTVYLQMNSLKPEDTAVYYCAADSVTRPAGDYWGQGTQVTVSS | low polyreactivity
QVQLVESGGGLVQAGGSLRLSCSASGSIFSYYAMGWYRQAPGKERELVAAISRSGGSTYYADSVKGRFTISRDNAKNTVYLQMNSLKPEDTAVYYCAATRIHYPSYDYWGQGTQVTVSS | high polyreactivity
QVQLVESAGGLVQAGGSLRISCAASGRTFFKYAMGWYSQAPGKERELVAAITGRGGSTYADSVKGRFTISRDNAKNTVYLQINSLKPEDTSVFYCAKVYQRGAQYYYYKYDYWGQGTQVTVSS | high polyreactivity

Sequence | polyreactivity (PSR sort gate)
QVQLVESGGGLVQAGGTLRLSCAASGNTFRYYAMGWYRQSPGKERELVARITGRAGSTYYADSVKGRFTISRDNAKKTVYLQMNSLKPEDTAVYYCAAEFYYGFDYWGQGTQVTVSS | high polyreactivity
QDQHVESGGGLVQAGGSLRLSCAASGSTLYRYAMGWYRQAPGKERELVAAISSAGSTHYADSVKGRFTISRDNAKNTVYLQKNSLKPEDTAVYYCAKVVKKIEFDYWGQGTQVTVSS | high polyreactivity
QVQLVESGGGLVQAGGSLRLSCAASGRTFYLYARGWYRQAPGKERELVAAITRSGGSTYYADSVKGRFTISRDNAKNTVYLQMNSLKPEDTAVYYCAAYSYYGAGDRAYDYWGQGTQVTVSS | high polyreactivity
QVQLVESGGGLVQEGGSLRLSCAASGLIFYDNMGWYRQAPGKERELVAAISSSGGSTSYADSVKGRFTISRDNAKNTVYLQMNSLKPEDTAVYYCAADSYPAYLGFVGFDYWGQGTQVTVSS | low polyreactivity
QVQLVESGGGLVQAGGSLRLSCAASGFIFSRYAMGWYRQAPGKERELGATINTNGGSTYYAYSVKGRFTISRDNAKNTVYLQMNSLKPEDTAVYYCNAKYQALQRSWGRYDYWGQGTQVTVSS | low polyreactivity
QVQLVESGGGLVQAGGSLRLSCAASGFTFYIYGMGWYRPAPGKERELVAAITWSGGRTYYADSVKGRFTISRDNAKNTVYLHMNSLKPEDTAVYYCAASYPGLSYHKYEYWGHGTQVTVSS | high polyreactivity
QVQLVESGGGLVQAGGSLRLSCAASGRTFPGYAMGWYRQAPGKERELVASITSRGGITNYADSVKGRFTISRDIAKNTVYLQMLCLKPEDTSVYYCAAVSFWTMDYWGQGTQVTVSS | low polyreactivity
QVQLVESGGGLVQAGGSLRLSCDASGSILPGYAMGWYRQEPGKEMELVAAISYRGTSTYYADSVKGRFTISRDNAKNTFYLQMNSLKPEDTAVYYCAAGGSWFRYPPSMDYWGQGTQVTVSS | high polyreactivity
QVQLVESGGGLVQAGGSLRLSCAASGSTFSTNAMGWYRPAPGKERELVAAISRSGGSTYYADSVKGRFTHSRDNEKNTVYLHMNSLKPEDTAVYYCARVSGYRYDYWGQGTQVTVSS | high polyreactivity
QVQLVESGGGLVQAGGSLRLSCAASGSIFDSNAMGWYRQAPRQERELVAAISSGGNTNYADSVKGRFTISRDNAKNTVYLQMNSLKPDDTAVYYCARDTQLPHFYGRVSEYDYWGQGTQVTVSA | low polyreactivity
QVQLVESGGGLVQAGGSLRLSCAASGRIFPGYAMGWYRQAPGKEREFVAAITASGGTTYYADSVKGRFTISRDNAKNTVYLQMNSLKPEDTAVYYCAVYDWRYYLGKLMEYWGQGTQVTVSS | high polyreactivity
QVQLVESGGGLVQAGGSLRLSCAASGRTFLLNAMGWYRQAPGKERELVAAMTRSGVITYYADSVKGRFTISRDNAKNTVYLQMNSLKPEDTAVYYCAARRDARSTEYGYWGQGTQVTVSS | high polyreactivity
QVQLVESGGGLVQAGGSLRLSCAASGRIFYVNAMGWYRQAPGKERELVATIRRGGDTNYADSVKGRFTISRDNAKNTVYLQMNSLKPEDTAVYYCASKAYQSSYQRYYWGQGTQVTVSS | high polyreactivity
QVQLVESAGGLVQEGGSLRISCAASGRIFFYYSMGWYRQAPGKERELVAAISQSGGSTYYADSVKGRFTISRDNAKNTVYLQMNSLKPEDTAVYYCNAADPYYDTSAVAGDYWGHGTQVTVSS | low polyreactivity
QVQLVESGGGLVQAGGSLRLSCAASGRTIVYNAMGWYRQAPGKESELVAAITSGGRTYYADSVKGRFTISRDNAKNTVYLQMNSVKPEDTAVYYCATDYYGPDYPLDYWGQGTQVTVSS | low polyreactivity
QVQLVDTGRGLVQAGGSLRLSCAPSGRTFGYNAMGWYRQAPGKERELVAAINWSGASTYYADSVKWRFTISRDNAKNTVYLQMKSLKPEDTAVYYCAADYSYIYGFDYWGQGTQVTVST | low polyreactivity
QVQLVESGGGLVQAGGSLRLSCAASGSNFVTYAMGWSRQAPGKERELVAAISSSGTSTYYADSVKGRFTISRDNAKNTVYLQMNSLKPEDTAVYYCAAYLRGYDYGYWGQGTQVTVSS | high polyreactivity
QVQLVESGAGLVQEGGSLRLSCAASGSIFQAYAMGWYRKAPGKERELVANISSGGSTNYADSVKGRFTISRDNAKNTVYLQMNSLKPEDTAVYYCAASRWIFVLTYEYDYWNRRDYWGQGTQVTVSS | low polyreactivity
QVQLVESGGGLVQAGGSLRLSCAVSGRTFYYYAMGWYRQAPGKERELVAAISSSGGSTYYADSVKGRFTISRDNAMNTVYLQLNRLKPEDTAVYYCNAYTTRSYGFDYWGQGTQVTVSS | high polyreactivity
QVQLVESGGGLVQAGGSLRLSCAASGRILDWYAMGWYRQAPGTERELVASIYSTGGSSYYADSVKGRFTISRDHAKNTVYLQMNRLKPDDTAVYYCAAVIRSQDGRGYDYWGHGTQVTVSS | high polyreactivity
QVQLVESGGGLVQAGGSLRLSCAASGSTFGDYAMGWYRQAPGKERELVAAISSSGGSTYYADSVKGRFTISRDNAKNTVYLQMNSLKPEDTAVYYCNADRFLYYARTYWYFWFGYWGQGTQVTVSS | low polyreactivity
